Data reported in US20230183354A1 (IMMIOS HOLDING B V, published 2023).
Changes are numbered by the printed parent chain.

B1: hCD103.06A (antibody, mouse IgG1, V domains shown)
VH: QVQLQQPGSELVRPGASVKLSCKASGYTFTSYWMHWVKQRHGQGLEWIGNIYPGSGSTNYDEKFKSKGTLTVDTSSSTAYMHLSSLTSEDSAVYYCTRGVYDNPYYFDYWGQGTTLTVSS
VL: DIQMTQSSSNLSVSLGGRVTITCKASDHINNWLAWYQQKPGNAPRVLISGATSLETGVPSRFSGSGSGKDYTLSITSLQTEDVATYYCQQYWSIPLTFGAGTKLELK
notes: also called clone 06A; hCD103.06 mAb
B2: hCD103.05A (antibody, mouse IgG1, V domains shown)
VH: EVQLQQSGPELEKPGASAKISCKASGYSFTGYNMNWVKQSNGKSLEWIGNIDPYYGGTSYNQKFKGKATLTVDKSSSTAYMQLKSLTSEDSAVYYCARSFYGYDAGSPYNYAMDYWGQGTPVTVSP
VL: DIVMTQSHKFMSTSVGDRVSITCKASQDVGTFVAWYQQKPGQSPKLLIYWASTRHTGVPDRFTGSGSGTDFTLTISNVQSEDLADYFCHQYSSYPYTFGGGTQLEIK
notes: Also tested labelled with AF647, conjugated with Df and labelled with 89Zr; these are written under this molecule; also called clone 05A; hCD103.05 mAb
B3: hCD103.07A (antibody, mouse IgG1, V domains shown)
VH: EVQLQESGPSLVKPSQTLSLTCSVTGDSITSGYWNWIRKFPGNKLEYMGYITYSGSTYYNPSLKSRISITRDTSKNQYYLQLNSVTTEDTATYYCARNYYGSSSMDYWGQGTSVTVSS
VL: DIVMTQSQKFMSTSVADRVSVTCKASQNVGSDVAWYQQKPGQSPKSLIYSASYRYSGVPDRFTGSGSGTDFTLTISNVQSEDLAEYFCQQYNSYPSTFGGGTKLEIK
notes: also called clone 07A
B4: hCD103.01A (antibody, V domains shown)
VH: B3 VH with A96T, N98H, S103D, S104A
VL: DIVMTQSHKFMSTSVGDRVSITCKASQDVSIAVAWYQQRPGQSPKLLIYSASYRYTGVPDRFTGSGSGTDFTFTISSVQAEDLAVYYCQQHYSTPWTFGGGTKLEIK
notes: Also tested labelled with AF647, conjugated with Df and labelled with 89Zr; these are written under this molecule; also called clone 01A; hCD103.01 mAb

How the values were obtained:
[1] = target: T1, human CD103 (integrin Alpha-E) / human integrin Beta-7 heterodimer on cells (human, UniProt P38570 19-1179; P26010 20-798); assay: flow cytometry competition on CD103+CD8+ T cells; pre-incubation with unlabeled 05A; table n=1
T1 construct: the assay field tells which cells; also called hCD103/hBeta7; CHO.K1-hCD103/hBeta7
T1 sequence (P38570 19-1179 limits assumed, chain 1 of 2): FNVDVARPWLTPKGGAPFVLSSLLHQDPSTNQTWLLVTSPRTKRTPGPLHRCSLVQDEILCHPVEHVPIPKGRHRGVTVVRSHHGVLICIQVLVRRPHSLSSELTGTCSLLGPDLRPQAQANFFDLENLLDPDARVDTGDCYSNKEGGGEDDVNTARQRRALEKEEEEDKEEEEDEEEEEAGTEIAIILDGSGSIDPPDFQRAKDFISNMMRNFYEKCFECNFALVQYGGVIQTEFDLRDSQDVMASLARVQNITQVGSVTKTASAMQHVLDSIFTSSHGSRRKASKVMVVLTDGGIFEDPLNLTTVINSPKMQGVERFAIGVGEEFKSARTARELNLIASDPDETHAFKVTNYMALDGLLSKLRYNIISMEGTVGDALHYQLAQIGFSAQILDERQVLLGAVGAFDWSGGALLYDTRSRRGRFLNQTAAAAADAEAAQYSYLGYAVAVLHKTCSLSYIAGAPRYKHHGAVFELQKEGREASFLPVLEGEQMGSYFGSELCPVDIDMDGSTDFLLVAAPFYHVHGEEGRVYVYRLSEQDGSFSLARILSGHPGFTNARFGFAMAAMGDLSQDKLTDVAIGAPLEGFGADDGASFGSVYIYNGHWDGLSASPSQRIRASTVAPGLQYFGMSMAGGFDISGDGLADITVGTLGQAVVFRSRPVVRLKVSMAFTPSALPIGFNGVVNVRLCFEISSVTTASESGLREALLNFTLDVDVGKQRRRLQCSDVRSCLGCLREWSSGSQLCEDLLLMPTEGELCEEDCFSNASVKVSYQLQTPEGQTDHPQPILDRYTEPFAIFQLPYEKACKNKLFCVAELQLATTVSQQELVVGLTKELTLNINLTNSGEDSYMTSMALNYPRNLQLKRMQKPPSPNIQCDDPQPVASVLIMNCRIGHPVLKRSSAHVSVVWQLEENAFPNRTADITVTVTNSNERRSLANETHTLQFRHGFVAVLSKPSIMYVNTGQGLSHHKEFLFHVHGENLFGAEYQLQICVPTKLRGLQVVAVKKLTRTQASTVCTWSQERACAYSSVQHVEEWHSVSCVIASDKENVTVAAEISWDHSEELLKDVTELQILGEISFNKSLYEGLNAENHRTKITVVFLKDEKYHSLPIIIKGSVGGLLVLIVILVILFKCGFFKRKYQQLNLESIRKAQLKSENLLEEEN
T1 sequence (P26010 20-798 limits assumed, chain 2 of 2): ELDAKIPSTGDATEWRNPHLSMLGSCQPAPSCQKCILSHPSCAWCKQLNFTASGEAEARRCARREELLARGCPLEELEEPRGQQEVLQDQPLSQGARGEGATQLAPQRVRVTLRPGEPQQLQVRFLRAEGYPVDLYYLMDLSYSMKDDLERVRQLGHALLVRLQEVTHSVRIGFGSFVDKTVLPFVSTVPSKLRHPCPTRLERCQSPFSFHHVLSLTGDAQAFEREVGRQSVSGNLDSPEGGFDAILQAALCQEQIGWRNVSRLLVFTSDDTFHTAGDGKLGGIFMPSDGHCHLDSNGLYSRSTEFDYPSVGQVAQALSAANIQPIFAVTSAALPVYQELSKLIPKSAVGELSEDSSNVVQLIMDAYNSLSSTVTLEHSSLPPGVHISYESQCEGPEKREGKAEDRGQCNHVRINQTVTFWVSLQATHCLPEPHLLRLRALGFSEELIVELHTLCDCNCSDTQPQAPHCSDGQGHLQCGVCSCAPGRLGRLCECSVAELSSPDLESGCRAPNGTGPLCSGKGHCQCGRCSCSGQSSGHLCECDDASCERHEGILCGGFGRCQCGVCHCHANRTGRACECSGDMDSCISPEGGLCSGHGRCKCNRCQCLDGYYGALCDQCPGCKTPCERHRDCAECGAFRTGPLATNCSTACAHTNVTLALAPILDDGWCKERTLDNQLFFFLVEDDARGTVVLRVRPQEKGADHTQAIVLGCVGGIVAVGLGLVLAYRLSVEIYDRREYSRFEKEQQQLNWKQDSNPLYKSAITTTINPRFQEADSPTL
Description: (§1) Percentage binding of fluorescently labeled mAbs was determined using flow cytometry. Maximum binding was set at 100%.
(§2) Percentage binding of fluorescently labeled mAbs was determined using flow cytometry. Maximum binding was set at 100%

[2] = target: T1, human CD103 (integrin Alpha-E) / human …; assay: flow cytometry competition on CD103+CD8+ T cells; pre-incubation with unlabeled 02A; table n=1
Description: as §1, §2

[3] = target: T1, human CD103 (integrin Alpha-E) / human …; assay: flow cytometry competition on CD103+CD8+ T cells; pre-incubation with unlabeled IgG (f2); table n=2
Description: as §1, §2

[4] = target: T1, human CD103 (integrin Alpha-E) / human …; assay: flow cytometry competition on CD103+CD8+ T cells; pre-incubation with unlabeled 07A; table n=2
Description: as §1, §2

[5] = target: T1, human CD103 (integrin Alpha-E) / human …; assay: flow cytometry competition on CD103+CD8+ T cells; pre-incubation with unlabeled BERACT; table n=2
Description: as §1, §2

[6] = target: T1, human CD103 (integrin Alpha-E) / human …; assay: flow cytometry competition on CD103+CD8+ T cells; pre-incubation with unlabeled 02A; table n=2
Description: as §1, §2

[7] = target: T1, human CD103 (integrin Alpha-E) / human …; assay: flow cytometry competition on CD103+CD8+ T cells; pre-incubation with unlabeled 05A; table n=2
Description: as §1, §2

[8] = target: T1, human CD103 (integrin Alpha-E) / human …; assay: flow cytometry competition on CD103+CD8+ T cells; pre-incubation with unlabeled 03A; table n=1
Description: as §1, §2

[9] = target: T1, human CD103 (integrin Alpha-E) / human …; assay: cell ELISA on CHO.K1-hCD103/beta7 cells, OD450-620, upper left panel
[10] = target: T2, human integrin Alpha-4 / human integrin Beta-7 heterodimer on CHO-K1 cells (human, UniProt P13612 34-1032; P26010 20-798); assay: cell ELISA on CHO.K1-humanAlpha4/beta7 cells, abs 450-610
T2 construct: Used as the control for reactivity with hBeta7; also called hAlpha4/hBeta7; CHO.K1-hAlpha4/hBeta7
T2 sequence (P13612 34-1032 limits assumed, chain 1 of 2): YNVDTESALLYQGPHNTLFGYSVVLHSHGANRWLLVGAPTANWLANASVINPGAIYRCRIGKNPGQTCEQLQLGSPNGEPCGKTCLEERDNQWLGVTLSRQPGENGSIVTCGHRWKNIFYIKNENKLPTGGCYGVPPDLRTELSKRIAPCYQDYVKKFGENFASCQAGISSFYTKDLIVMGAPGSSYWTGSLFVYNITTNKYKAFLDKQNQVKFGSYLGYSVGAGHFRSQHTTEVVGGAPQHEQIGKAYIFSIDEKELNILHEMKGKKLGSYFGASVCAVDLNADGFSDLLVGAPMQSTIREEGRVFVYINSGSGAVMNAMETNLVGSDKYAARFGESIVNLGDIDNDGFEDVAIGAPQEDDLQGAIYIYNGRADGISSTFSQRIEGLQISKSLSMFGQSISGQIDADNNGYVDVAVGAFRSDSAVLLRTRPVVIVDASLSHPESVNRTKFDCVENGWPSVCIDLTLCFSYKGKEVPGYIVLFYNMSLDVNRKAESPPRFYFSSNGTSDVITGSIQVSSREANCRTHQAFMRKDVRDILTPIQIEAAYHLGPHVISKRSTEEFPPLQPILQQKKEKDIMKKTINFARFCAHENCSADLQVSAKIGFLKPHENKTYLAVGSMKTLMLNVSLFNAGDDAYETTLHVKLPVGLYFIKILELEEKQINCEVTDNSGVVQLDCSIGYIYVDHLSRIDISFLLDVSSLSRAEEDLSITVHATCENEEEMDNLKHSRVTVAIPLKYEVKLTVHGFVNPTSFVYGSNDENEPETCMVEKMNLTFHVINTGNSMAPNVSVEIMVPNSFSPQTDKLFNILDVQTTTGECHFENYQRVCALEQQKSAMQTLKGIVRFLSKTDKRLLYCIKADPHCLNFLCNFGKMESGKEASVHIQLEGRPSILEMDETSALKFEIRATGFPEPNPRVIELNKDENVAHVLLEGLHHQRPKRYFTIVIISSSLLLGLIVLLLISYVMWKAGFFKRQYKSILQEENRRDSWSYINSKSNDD
T2 sequence (P26010 20-798 limits assumed, chain 2 of 2): as the sequence (P26010 20-798 limits assumed, chain 2 of 2) above

[11] = target: T1, human CD103 (integrin Alpha-E) / human …; assay: flow cytometry competition on CD103+CD8+ T cells; pre-incubation with unlabeled 06A; table n=2
Description: as §1, §2

[12] = target: T1, human CD103 (integrin Alpha-E) / human …; assay: flow cytometry competition on CD103+CD8+ T cells; pre-incubation with unlabeled 06A; table n=1
Description: as §1, §2

[13] = target: T1, human CD103 (integrin Alpha-E) / human …; assay: flow cytometry competition on CD103+CD8+ T cells; pre-incubation with unlabeled 07A; table n=1
Description: as §2

[14] = target: T1, human CD103 (integrin Alpha-E) / human …; assay: cell ELISA on CHO.K1-humanCD103/beta7 cells, abs 450-610
[15] = target: T1, human CD103 (integrin Alpha-E) / human …; assay: flow cytometry competition on CD103+CD8+ T cells; pre-incubation with unlabeled MCA708 (f4); table n=1
Description: as §1, §2

[16] = target: T1, human CD103 (integrin Alpha-E) / human …; assay: flow cytometry competition on CD103+CD8+ T cells; pre-incubation with unlabeled MCA708 (f4); table n=2
Description: as §1, §2

[17] = target: T1, human CD103 (integrin Alpha-E) / human …; assay: flow cytometry competition on CD103+CD8+ T cells; pre-incubation with unlabeled 03A; table n=2
Description: as §1, §2

Binder | % binding of the fluorescently labeled mAb (IgG pre-incubation = 100) [1] | % binding of the fluorescently labeled mAb (IgG pre-incubation = 100) [2] | % binding of the fluorescently labeled mAb (IgG pre-incubation = 100) [3] | % binding of the fluorescently labeled mAb (IgG pre-incubation = 100) [4] | % binding of the fluorescently labeled mAb (IgG pre-incubation = 100) [5] | % binding of the fluorescently labeled mAb (IgG pre-incubation = 100) [6] | % binding of the fluorescently labeled mAb (IgG pre-incubation = 100) [7] | % binding of the fluorescently labeled mAb (IgG pre-incubation = 100) [8] | EC50 (read off the curve) [9] | binding result [10] | % binding of the fluorescently labeled mAb (IgG pre-incubation = 100) [11] | % binding of the fluorescently labeled mAb (IgG pre-incubation = 100) [12] | % binding of the fluorescently labeled mAb (IgG pre-incubation = 100) [13] | EC50 (read off the curve) [14] | % binding of the fluorescently labeled mAb (IgG pre-incubation = 100) [15] | % binding of the fluorescently labeled mAb (IgG pre-incubation = 100) [16] | % binding of the fluorescently labeled mAb (IgG pre-incubation = 100) [17]
B1 | 101% | 104% | 100% | 97% | 109% | 103% | 102% | 101% | ~0.02 µg/mL | no binding | 18.9% | 18.7% | 93.2% | ~0.04 µg/mL | 0.7% | 1% | 108%
B2 | 13.1% | 4.3% | 100% | 56.9% | 4.9% | 4.6% | 14.2% | 100% | ~0.02 µg/mL | no binding | 87.4% | 101% | 66.3% |  | 94.6% | 89.7% | 90.9%
B3 | 7.9% | 0.5% | 100% | 29.8% | 1% | 0.9% | 11.4% | 94.4% |  | no binding | 81.6% | 73.2% | 33.7% | ~0.01 µg/mL | 92% | 92.5% | 77.8%
B4 | 71.8% | 2.3% | 100% | 26.6% | 4% | 3% | 77.4% | 96.7% | ~0.02 µg/mL | no binding | 90.9% | 81.8% | 27.5% | ~0.02 µg/mL | 83.9% | 92.3% | 97.3%
